± gives the uncertainty stated by the source.
B1: E3 ubiquitin-protein ligase NEDD4, residues 836 to 881; numbered along this chain, P46934 (parent)
chain: EIEQGFLPKGWEVRHAPNGRPFFIDHNTKTTTWEDPRLKIPAHLRG

Variants of: B1
Experiment: abundance fitness (aPCA) (normalised: wild type 0, dead -1); higher = more abundant; growth selection in yeast, the domain comes from the species named
Conditions: Homo sapiens

Abundance fitness: each site, then its substitutions
I24: Y 0.137 ± 0.16, N -0.715 ± 0.1, F -0.522 ± 0.21, G -0.98 ± 0.12, Q -0.947 ± 0.11, P -0.929 ± 0.19, R -0.609 ± 0.067, C -0.402 ± 0.071, H -0.523 ± 0.079, L 0.003 ± 0.083, A -0.818 ± 0.14, W -0.356 ± 0.058, T -0.701 ± 0.17, S -1.09 ± 0.2, E -0.849 ± 0.16
N18: I -0.976 ± 0.24, L -0.696 ± 0.087, V -0.83 ± 0.076, M -0.907 ± 0.065, A -0.69 ± 0.091, P -0.255 ± 0.13, R -0.805 ± 0.11, C -0.256 ± 0.093, K -0.652 ± 0.15, F -0.75 ± 0.1, S -0.241 ± 0.051, Y -0.802 ± 0.23, W -0.664 ± 0.054, H -0.718 ± 0.097, G -0.063 ± 0.034, E -0.232 ± 0.064, Q -1.06 ± 0.34, T -0.29 ± 0.033
P21: L -0.131 ± 0.036, V -0.149 ± 0.057, A -0.055 ± 0.04, S -0.233 ± 0.046, F -0.601 ± 0.1, Q -0.058 ± 0.062, N -0.487 ± 0.11, D -0.445 ± 0.039, K 0.027 ± 0.051, T -0.451 ± 0.073, Y 0.055 ± 0.064, E -0.149 ± 0.059, C -0.084 ± 0.06, W -0.402 ± 0.04, R -0.109 ± 0.038, M -0.218 ± 0.057, I 0.033 ± 0.061
P36: S -1.09 ± 0.16, A -0.629 ± 0.06, V -0.96 ± 0.1, Q -1.03 ± 0.31, M -1.06 ± 0.16, C -0.958 ± 0.15, H -0.71 ± 0.18, E -0.283 ± 0.11, K -0.846 ± 0.079, Y -0.713 ± 0.12, L -1.01 ± 0.064, G -0.927 ± 0.086, F -1.04 ± 0.34, D -0.893 ± 0.22, W -0.954 ± 0.13, N -0.818 ± 0.21
P17: G -0.323 ± 0.063, I -0.012 ± 0.15, N -0.308 ± 0.1, T -0.298 ± 0.07, R -0.178 ± 0.053, L -0.197 ± 0.058, W -0.419 ± 0.077, K -0.115 ± 0.084, Q -0.585 ± 0.17, H -0.276 ± 0.13, Y -0.662 ± 0.13, V -0.191 ± 0.045, F -0.447 ± 0.049
G19: M -0.827 ± 0.094, K -0.826 ± 0.17, T -1.05 ± 0.38, L -0.923 ± 0.11, A -0.734 ± 0.1, Q -0.632 ± 0.15, W -0.833 ± 0.1, Y -0.828 ± 0.053, D -0.943 ± 0.26, H -0.496 ± 0.27, C -0.929 ± 0.2, P -0.695 ± 0.14, N -0.551 ± 0.12, E -0.628 ± 0.072
F22: G -0.712 ± 0.048, E -0.393 ± 0.067, N -0.774 ± 0.1, K -0.702 ± 0.1, Q -0.239 ± 0.033, I -0.168 ± 0.07, R -0.745 ± 0.079, S -0.797 ± 0.091, H -0.844 ± 0.17, T -0.536 ± 0.06, C -0.122 ± 0.069, A -0.688 ± 0.08, V -0.211 ± 0.048, L -0.151 ± 0.04, D -0.35 ± 0.11
H26: G -0.501 ± 0.036, R -0.45 ± 0.037, C -0.388 ± 0.052, I -0.078 ± 0.1, L -0.507 ± 0.05, V -0.423 ± 0.038, D -0.515 ± 0.062, M -0.262 ± 0.053, K -0.342 ± 0.087, A -0.69 ± 0.05, E -0.591 ± 0.056, W -0.327 ± 0.062, N -0.449 ± 0.12, T -0.357 ± 0.079, Y -0.749 ± 0.16, Q -0.381 ± 0.043, F -0.209 ± 0.098, S -0.47 ± 0.051
K29: L -0.343 ± 0.037, T -0.577 ± 0.089, P -0.889 ± 0.046, N -0.089 ± 0.038, Q -0.063 ± 0.042, V -0.82 ± 0.097, H -0.224 ± 0.092, F -0.446 ± 0.11, S -0.231 ± 0.053, M -0.303 ± 0.081, I -0.954 ± 0.21, G -0.002 ± 0.038, Y -1 ± 0.34, C -0.323 ± 0.045, E -0.324 ± 0.079, A -0.237 ± 0.055
F23: L -0.633 ± 0.059, H -0.656 ± 0.12, V -0.651 ± 0.057, M -0.751 ± 0.12, K -0.47 ± 0.07, A -0.416 ± 0.088, Y -0.27 ± 0.076, S -0.856 ± 0.099, I -0.896 ± 0.13, C -0.966 ± 0.12, T -0.883 ± 0.14, W -0.147 ± 0.049, Q -0.824 ± 0.1, N -0.79 ± 0.15, D -0.679 ± 0.066, G -0.566 ± 0.049
R37: E -0.752 ± 0.17, A -0.567 ± 0.056, I -0.75 ± 0.1, C -0.611 ± 0.064, G -0.586 ± 0.042, P -0.867 ± 0.12, H -0.268 ± 0.072, L -0.399 ± 0.076, M -0.364 ± 0.075

Reference: the Human Domainome abundance scans (Beltran et al. 2025)
